Data reported in article PMC10404690.
Each block holds one substance with its values, some of them ahead of it.

Key:
htau40 seeds (human) = htau40 seeds (human) (UniProt P10636)
K18 fibril seeds (human) [1] = target: K18 fibril seeds (human) (UniProt P10636)
[2] = target: AD tau filaments (in AD brain homogenate) (human (endogenous in AD brain tissue))
K18 fibril seeds (human) [3] = target: K18 fibril seeds (human) (UniProt P10636); remark: listed apart in the source
[4] = target: Atto633-labeled 3R MAP2 monomer (UniProt P11137); assay: fluorescence polarisation; fluorescence anisotropy; 100 nM Atto633-labeled monomer titrated with K18 seeds (0–20 μM monomer equivalents), equilibrated 16 h at 22 °C; one-site binding model; apparent KD, based on monomer equivalents of seeds, not seed concentrations
[5] = target: Atto633-labeled 4R MAP2 monomer (UniProt P11137); assay: as above
[6] = target: Atto633-labeled K18 monomer (human) (UniProt P10636); assay: as above

Chain of K18 fibril seeds (P10636 561-689): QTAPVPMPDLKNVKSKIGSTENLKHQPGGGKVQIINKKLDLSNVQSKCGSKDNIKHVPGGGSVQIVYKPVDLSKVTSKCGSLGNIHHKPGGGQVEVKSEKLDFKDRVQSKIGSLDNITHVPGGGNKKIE
Chain of K18 fibril seeds (human) (P10636 561-689): as above
Chain of 4R MAP2 (P11137 other isoform, or with tags, fused parts or gaps): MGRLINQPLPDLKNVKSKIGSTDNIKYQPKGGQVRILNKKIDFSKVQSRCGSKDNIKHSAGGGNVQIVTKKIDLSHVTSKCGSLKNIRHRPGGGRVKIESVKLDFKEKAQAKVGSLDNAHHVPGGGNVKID
Chain of htau40 seeds (human) (P10636 other isoform, or with tags, fused parts or gaps): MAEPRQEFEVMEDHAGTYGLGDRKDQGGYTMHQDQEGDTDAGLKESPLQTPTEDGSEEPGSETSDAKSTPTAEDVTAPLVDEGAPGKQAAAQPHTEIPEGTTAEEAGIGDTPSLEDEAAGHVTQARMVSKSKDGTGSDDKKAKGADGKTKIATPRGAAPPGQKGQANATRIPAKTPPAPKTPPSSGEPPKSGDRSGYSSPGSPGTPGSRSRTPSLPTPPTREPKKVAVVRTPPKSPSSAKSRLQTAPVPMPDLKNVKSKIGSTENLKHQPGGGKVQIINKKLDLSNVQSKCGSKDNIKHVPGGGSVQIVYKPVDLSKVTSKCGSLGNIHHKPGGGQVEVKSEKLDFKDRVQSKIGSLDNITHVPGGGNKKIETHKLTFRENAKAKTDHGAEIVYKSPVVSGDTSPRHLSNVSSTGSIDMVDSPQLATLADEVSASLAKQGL

tau fibril growth (10 μM htau40 monomers on 1% htau40 seeds, 21 h, 37 °C; sedimentation, SDS-PAGE) with 10 μM 3R MAP2, relative to the reaction without MAP2 set to 100% (% of growth without MAP2) (htau40 seeds (human)): 56 | percent of HEK293 cells expressing htau40P301S-EYFP that contain tau puncta 24 h after transduction of K18 seeds preincubated with 3R MAP2 (25% without MAP2) (K18 fibril seeds (human) [1]): 11 % of cells | amplification of tau fibrils from AD brain homogenate (5 μM htau40 monomer, cycles of shaking and growth for 30 h; sedimentation, SDS-PAGE, densitometry) with 5 μM 3R MAP2 [2]: > 80 % reduction | IC50 of inhibition of K18-seeded aggregation of 10 μM K18 monomers (10% seeds, 6 h, 37 °C; sedimentation, SDS-PAGE, Coomassie; 12.5 nM-25 μM 3R MAP2); blocks recruitment of K18 monomers onto K18 seeds (K18 fibril seeds (human) [3]): 2200 nM
Substance: 3R MAP2 (from UniProt P11137-4 362-490) (domain or fragment)

tau fibril growth (10 μM htau40 monomers on 1% htau40 seeds, 21 h, 37 °C; sedimentation, SDS-PAGE) with 10 μM 4R MAP2, relative to the reaction without MAP2 set to 100% (% of growth without MAP2) (htau40 seeds (human)): 25 | percent of HEK293 cells expressing htau40P301S-EYFP that contain tau puncta 24 h after transduction of K18 seeds preincubated with 4R MAP2 (25% without MAP2) (K18 fibril seeds (human) [1]): 6.4 % of cells | amplification of tau fibrils from AD brain homogenate (5 μM htau40 monomer, cycles of shaking and growth for 30 h; sedimentation, SDS-PAGE, densitometry) with 5 μM 4R MAP2 [2]: > 80 % reduction | IC50 of inhibition of K18-seeded aggregation of 10 μM K18 monomers (10% seeds, 6 h, 37 °C; sedimentation, SDS-PAGE, Coomassie; 12.5 nM-15 μM 4R MAP2); blocks recruitment of K18 monomers onto K18 seeds (K18 fibril seeds (human) [3]): 1100 nM
Substance: 4R MAP2 (from UniProt P11137-4 362-490) (domain or fragment)

Kd [4]: 1600 nM | Kd [5]: 1300 nM | Kd [6]: 5400 nM
Substance: K18 fibril seeds (from UniProt P10636-8 244-372)
